This is an account of results in patent publication US20190359687A1 (Bayer, published 2019).

Assay [1] deals with T1, human glycophorin A on human red blood cells (human, UniProt P02724 20-150).
T1 construct: whole, on cells; also called human GPA; huGPA
T1 sequence (looked up): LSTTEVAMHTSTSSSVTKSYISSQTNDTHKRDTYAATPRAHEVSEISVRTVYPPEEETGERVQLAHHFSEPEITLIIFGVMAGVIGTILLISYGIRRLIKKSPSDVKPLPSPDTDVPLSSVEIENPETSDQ
Briefly: partition to human RBC, vWF deficient plasma, 1 min.

Assay [2] concerns the target T2, Cynomolgus monkey glycophorin A on Cynomolgus monkey red blood cells (Cynomolgus monkey).
T2 construct: whole, on cells; also called Cyno GPA; Cyno RBC
The assay can be described thus: partition to Cyno RBC, human HemA plasma, 1 min.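 Further: FVIII fusion spiked at 1 IU/mL into RBC suspension at whole-blood density.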

Assay [3] has as its target T1, human glycophorin A on human red blood …. The assay can be described thus: partition to human RBC, vWF deficient plasma, 60 min.
Assay [4] has the same target. Briefly: partition to human RBC, vWF deficient plasma, 15 min.
For assay [5] the target is unchanged. Briefly: partition to human RBC, vWF deficient plasma, 120 min.
Assay [6] deals with T2, Cynomolgus monkey glycophorin A on …. The assay can be described thus: partition to Cyno RBC, human HemA plasma, 120 min.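 Further: FVIII fusion spiked at 1 IU/mL into RBC suspension at whole-blood density.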
Procedure: (§1) To evaluate partition to cynomolgus monkey or human red blood cells, whole blood was draw from Cynomolgus monkey or normal human volunteers in to anticoagulant with 4% sodium citrate (Sigma, St Louis, Mo.). The red blood cells were purified by layering the whole blood on to ficoll followed by low speed centrifugation. The supernatant containing plasma, platelets and white blood cells was discarded and the red blood cell pellet was resuspended in 10 pellet volumes of PBS (50 mM Phosphate buffer, pH7.4, 150 mM NaCl). The red blood cells were then pelleted by slow speed centrifugation and the red blood cells re-suspended in 10 volumes of PBS. This washing step was repeated 4 more times and the red blood cells finally resuspended in a volume of plasma from Hemophilia patients with less than 1% of normal levels of FVIII (GeorgeKing Bio-Medical, Overland Park, Kans.) to generate a total volume equal to the initial blood volume such that the RBC density was equal to that of normal whole blood. BDD and RBC targeted FVIII molecules were then spiked into RBC suspension in HemA plasma at 1 IU/mL, and incubated at room temperature for 2-3 hours with gentle rotation. […] An additional control was performed in which BDD or RBC targeted FVIII molecules were added at 11U/ml into the same human hemophilia A plasma and incubated for 5 minutes and 180 mins. These samples were used to determine the input FVIII activity in the presence of plasma which was used to calculate the percentage of the molecule that was bound to RBC. All plasma samples were then assayed together for FVIII activity using the Coatest SP assay (DiaPharma, Columbus, Ohio). The assay was performed following the manufacturer's instructions in a 96-well plate format. […] The plate was incubated at 37° C. for 10 minutes with shaking between each reagent addition.
The target in assay [7] is T3, glycophorin A peptide GP5 (human, biotin at the N-terminus).
T3 construct: Residues 42 to 61 of the human glycophorin A extracellular domain
T3 peptide: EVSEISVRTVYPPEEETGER
The assay can be described thus: Octet, GP5 peptide on the probe, fusion protein in solution, 1:1 fit. Background: Biolayer interferometry detects binding as a change in optical thickness at a sensor tip.

Assay [8] deals with T2, Cynomolgus monkey glycophorin A on …. The assay can be described thus: partition to Cyno RBC, human HemA plasma, 30 min.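 Further: FVIII fusion spiked at 1 IU/mL into RBC suspension at whole-blood density.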
The target is the same in assay [9]. Briefly: partition to Cyno RBC, human HemA plasma, 15 min.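 Further: FVIII fusion spiked at 1 IU/mL into RBC suspension at whole-blood density.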
Procedure: as §1
The target in assay [10] is T1, human glycophorin A on human red blood …. Briefly: partition to human RBC, vWF deficient plasma, 30 min.
In assay [11] the target is T2, Cynomolgus monkey glycophorin A on …. The assay can be described thus: partition to Cyno RBC, human HemA plasma, 60 min.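 Further: FVIII fusion spiked at 1 IU/mL into RBC suspension at whole-blood density.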
Procedure: as §1
The target is the same in assay [12]. Briefly: partition to Cyno RBC, human HemA plasma, 5 min.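 Further: FVIII fusion spiked at 1 IU/mL into RBC suspension at whole-blood density.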
The target in assay [13] is T1, human glycophorin A on human red blood …. The assay can be described thus: partition to human RBC, vWF deficient plasma, 5 min.

B1: TPP-9049 FVIII-scFv fusion protein (other)
chain: ATRRYYLGAVELSWDYMQSDLGELPVDARFPPRVPKSFPFNTSVVYKKTLFVEFTDHLFNIAKPRPPWMGLLGPTIQAEVYDTVVITLKNMASHPVSLHAVGVSYWKASEGAEYDDQTSQREKEDDKVFPGGSHTYVWQVLKENGPMASDPLCLTYSYLSHVDLVKDLNSGLIGALLVCREGSLAKEKTQTLHKFILLFAVFDEGKSWHSETKNSLMQDRDAASARAWPKMHTVNGYVNRSLPGLIGCHRKSVYWHVIGMGTTPEVHSIFLEGHTFLVRNHRQASLEISPITFLTAQTLLMDLGQFLLFCHISSHQHDGMEAYVKVDSCPEEPQLRMKNNEEAEDYDDDLTDSEMDVVRFDDDNSPSFIQIRSVAKKHPKTWVHYIAAEEEDWDYAPLVLAPDDRSYKSQYLNNGPQRIGRKYKKVRFMAYTDETFKTREAIQHESGILGPLLYGEVGDTLLIIFKNQASRPYNIYPHGITDVRPLYSRRLPKGVKHLKDFPILPGEIFKYKWTVTVEDGPTKSDPRCLTRYYSSFVNMERDLASGLIGPLLICYKESVDQRGNQIMSDKRNVILFSVFDENRSWYLTENIQRFLPNPAGVQLEDPEFQASNIMHSINGYVFDSLQLSVCLHEVAYWYILSIGAQTDFLSVFFSGYTFKHKMVYEDTLTLFPFSGETVFMSMENPGLWILGCHNSDFRNRGMTALLKVSSCDKNTGDYYEDSYEDISAYLLSKNNAIEPRSFSQNPPVLKRHQREITRTTLQSDQEEIDYDDTISVEMKKEDFDIYDEDENQSPRSFQKKTRHYFIAAVERLWDYGMSSSPHVLRNRAQSGSVPQFKKVVFQEFTDGSFTQPLYRGELNEHLGLLGPYIRAEVEDNIMVTFRNQASRPYSFYSSLISYEEDQRQGAEPRKNFVKPNETKTYFWKVQHHMAPTKDEFDCKAWAYFSDVDLEKDVHSGLIGPLLVCHTNTLNPAHGRQVTVQEFALFFTIFDETKSWYFTENMERNCRAPCNIQMEDPTFKENYRFHAINGYIMDTLPGLVMAQDQRIRWYLLSMGSNENIHSIHFSGHVFTVRKKEEYKMALYNLYPGVFETVEMLPSKAGIWRVECLIGEHLHAGMSTLFLVYSNKCQTPLGMASGHIRDFQITASGQYGQWAPKLARLHYSGSINAWSTKEPFSWIKVDLLAPMIIHGIKTQGARQKFSSLYISQFIIMYSLDGKKWQTYRGNSTGTLMVFFGNVDSSGIKHNIFNPPIIARYIRLHPTHYSIRSTLRMELMGCDLNSCSMPLGMESKAISDAQITASSYFTNMFATWSPSKARLHLQGRSNAWRPQVNNPKEWLQVDFQKTMKVTGVTTQGVKSLLTSMYVKEFLISSSQDGHQWTLFFQNGKVKVFQGNQDSFTPVVNSLDPPLLTRYLRIHPQSWVHQIALRMEVLGCEAQDLYGGGSGGGGSGLVPRGSGGGSGGGGSGDIQLTQSPSFLSASVGDRVTITCRASSSVRYIYWFQQKPGKAPKLLIYATSFRQSGVPSRFSGSGSGTEYTLTISSLQPEDFATYYCHQRNSFPYTFGQGTKLEIKGGGGSGGGGSGGGGSGGGGSEVQLVQSGAEVKKPGASVKVSCKASGYTFTTYAIHWVRQAPGQGLEWMGYINPSSGYTRYNPKFKGRVTMTRDKSTSTAYMELRSLRSDDTAVYYCWTGTRDYWGQGTTVTVSS
notes: The entry is the mature protein; mostly a 2 chain molecule; also called BDD-C scFv; PPB 6733
Turning to B1, the “percentage bound to human RBC” value came out at 24.6% in assay [1]; 77.8% in [3]; 64.8% in assay [4]; 80.3% in assay [5]; 72.5% in assay [10]; 48.5% in [13]. Further, the “% bound to Cyno RBC” value was found to be 28.1% in assay [2]; 73.8% in assay [6]; 67.5% in assay [8]; 62.1% in assay [9]; 72.2% in [11]; 48.2% in assay [12]. The molecule further displayed a Kd in [7] of 2.4 nM. For the same molecule, in assay [7], the koff is 0.00305 s⁻¹. The same molecule displayed a kon in assay [7] of 1.27e+06 M⁻¹ s⁻¹.

As usually defined, the Kd is the constant that tells how readily two partners part at equilibrium. As usually defined, the koff is the first-order rate constant of dissociation. As usually defined, the kon is the rate constant with which the complex forms.
